Here are results for 47 sequences from the NTF2 design screens of Basanta et al. (2020).

This data set can be described thus: protease stability score; higher = more stable; yeast display proteolysis, trypsin and chymotrypsin.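 Further: log10 excess protease needed over predicted unfolded state with 0 meaning unfolded.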

“DEDRYERLVKKAFEMIVKGNEEEVRKLLKPDVDYEYADHKFRGEEAAQFIVRLVQKVGAQAEVRRHKVEGNTATADFVYHDGDQTVQTRAEVTYEGDKLKQARVENTEEVKKLDHKG” came in with a protease stability score of 0.003.
As for “DEDRYKKLMDKAFKLIMSGDEETMIKMLKPDVQYEYIDTKYEGEQVAKVIVRIVQKVGAEVRIKRKEHKGDKARADFDYHNGDQTVRTTAEVRYEGDKLKEARVKMTDEVKKVVQRG”, the protease stability score was found to be 0.028.
Under “DEDRYRRKIEEVFKQVENGDEKKMKKDLKENVKYKYADKEKEGPEVAEHIVKVVKKIGAEVTRKEQEVKGDTLRAKFQYRKGDQTVRTEAEATYEGDQAKEVRVKMTDEVKKIVHQG” stands 0.05.
Under “DEDSDRSVAQEFFEAVQRGNKSDVHRLADKDAKAEVGEKDIDGREELTKWVRELKRRVDHLDVKSITNKPGRVHFDAEYHFNGTTEKMVIVVQVHNGKVKEVTVQRG” stands 0.908.
Under “DEDSEAHKLLRELEKVLSTGDEDKMRRLADPNASIRIGDTQIRGRTQIQDHVKRHKEHVDKVSIDVKEVTAQGNKANMKYVIRVQINGRTHQEQVRVDVDLQGDKFKIKQWTEG” stands 0.055; under “DEDSEATEVAKTMHKNMKEGDPDKFMDQFDKDVRVQVGDKVYHGRDNALKWVREMLKRVDHVNFQVKRVRRQGDSVVLHLEVTLNQNGKHDKTTFVIHFTKQGDKFRADHLREQ”, 1.86.
The sequence “DEDSEFEAARRFFKAVQTGDEDEAMRQMDEDASARVGDKTYHGREHARKAMHNFRQEVDHIDVTTFDKSNGRLDVNAILEHNGKTKSVKINIQASNGHVKSVNIQDK” returned a protease stability score of -0.103.
The result for “DEDSHKKLLEEMKDILNHGNFKNMLELADKNVRMQVGDKQYTGHSEFEDFLEHQRRQIDHLQVTDFKVSGENLVLTATANVNGKHVTIRFVVFFENGKMVRMEVDPSFQKQLES” reads 0.87.
Under “DEDSQAHEIAQHFIELLKHNNEDDMKKYIDPNAKAQYGDKRVHGRNHVIRTFKEMRDKVDHISVEIKSIKANGEKISADMVVTFNVNGKNETVQYVLIFQVQGERVRVTHVKID” stands 0.796.
The sequence “DEDSQTKLAELFITALEEGDPELANKNVDENARADVGDKTLHGREDVSRMVHDLRRRADHIQVETLEVRNGRVDAIIVIDVNGKKVRFRMEIEIHNGRIKHLRMKSE” had a protease stability score of 0.653.
The result for “DEDTALTIAEQVMKAIQRGDEEEAEKLGKPDVEVQAFNERNKGQEMLKKAVEYVKKVGDQFEYKETRKEGNQVVTVVQVTRGGRTMEYKVDVKVEGGKVKLWRVEIPEEFAKVVEKS” reads 0.013; that for “DEDTARKQVQIYKDNDPNQLVRMFDENARLKVGDQTVDGREELERWVKRLRTRVDRYSYKNVDIQGERVVIDMVMVVDGKQVEFVVEFVVEDGRIKNAKVQARNKDEETKLQEAIG”, 1.25.
As for “DEDTESNFRQFIRAWKSGNPNELRRLAPPDAHLKVGDKEWHGMEKAVTYLEREVKESTFDIKRWDVKVDGNSVTAHVKMVVHDNGQPNNYKVEMNANFHNGQIESYNVETRK”, the protease stability score turned out to be 0.267.
With “DEDTIKKLVKRMIDALVKNNTEEARRLLKPDVRFEAVDTEVRGPDQVATYYKKVKDLGVEIRVKEYKVEGNHAKVKYDMRHGGDQITVEAELEAKDSKVDRFRHEDDEKYQKTVKHG”, the protease stability score was found to be 0.154.
Take “DEDTIRKVNRSFLEAVQHNDDDTLRRLLDEDAHAQYGDKTVHGKTEVVKMILTFVEQVDSLDYKSITATGDHVDVKVDAKHNGRTLDVRIIMRIENGRFTHVQFDIR”: the protease stability score stood at 0.075.
The result for “DEDTIRRQAKEFFKNFRDNDEDSLRTLMDENVEARYGDKTYHGRESVLTALATVLSQIDHLEVENLHVHNGRIEVVMKFVVNGREVRMNVIFHIRNGRIKKINIDPDEQRKLES” reads 1.49; that for “DEDTLKHMAREFVKALQTGDEDRLSEMVDENVRIDYGDKTVSGRKKAQEYAHRVRKQVDHIEVREVEVHGNKVEIDAVLVFNGQRLTVTFRIIMRNGKVQHIQLEVTDPDKQRKAEQ”, 1.26.
The result for “DEDTLKKLFEQVFKYVQKGNTKELKKVIDESVEFQFGDHRYKGVDQYIKLIKEFKDRGVQFRVEEAQQKDDDVTMRTKIRYGNKEVTVKAQARYDGGHAKHFRVELSEEAKKALKTG” reads 0.292.
The result for “DEDTLKKMAQKIADAIRKGDEDQMERLADEDARMSYGDTTWHGRQEVKKAVREFRNQFDHLTIKRITVKGEKVKIDAEFTVNGREVSFVVIAHVNNGRLKEVVVHFTDPDTLHEALK” reads 0.622.
The sequence “DEDTLRKVAETLMKALKTNDSESLKQMMDKDVKMTVGDKKYQGREEAADHLIELAQSVDHLEVRSVDNQGNHASVEFEVQHNGRNDTVHLRFEISNGRVKNVVLHTP” showed a protease stability score of 1.99.
The result for “DEDTLRTQEEQFKRNNPDDLKKQFDPNAKIRYGDKEITGREDLKKFIDKLRKRIDHYRVRSINIKGEHVRADVVVVVDGRHVRYKVIRHLDNGKVKSLEVKFTSEEQEKKFKEALD” reads 0.261; that for “DEDTNREQVKRFEEAQQENDPDKWMDNLDENARLDVGDTRVHGSKEIMKHFKRLNDKIDHWRVQSFEFHNGRMKLNAVARVNGKRLKMQFQANVHNGKFTELRMDPDAVRKITS”, 0.413; that for “DEDVEDRVRRFLEQVNHNNPQDLSKYMDPNARLDIGDKVLHGREDIHKFWEDLIRESRIEVREMDVKVHNGRVSATVRFVEHENGNPRETVMKITATWSNGRAQFMRFQSDG”, 0.82.
As to “DEDVERIIKRFLTALTHNDPEQAAQNVDPNAQVRIGDKSVHGKDQLKNRIEEEVKEMRVDIKHMSVDVKGNKASIHLHFVIQTNGKPDEKTAVMEVVVQGDKIHELELHDTK”, the protease stability score is 0.725.
Under “DEDVKELAEKYWKVVKEGNPHEVKKMVDPNVKFNVGEQHIHGREEVARQVSKENREIRINYQLRDVKVHNGRVDVTADLEEEHNGKPETNKVKAHFVFRNGRVQTLSQTNKK” stands -0.031; under “DEDVKKLFEDWLRALQTNNPDEVNEMADPNVTVKVGNKVVHGREQLNKDLKEETKHIRVTYHHVDLTVHNGRAKARLDVTVNVNGRPVRFQFNVTVHARNGRVVSMHVQIPHEVLETIKQ”, 1.57.
Under “DEDVKRMIEDFIEAEKKNNPRQLKKNADPEAEADVGDTKVHGMDHFAREVKKRMDQMRVSVDYKSITVDGNTIKAKARVSENHNGRPKHNTATLEFRAHNGRIKEIRHHEDK” stands -0.332; under “DEDVKRVMEELVKVMHNNDPNEFMKLLDPNARWTIGDKTYHGRDNLRREVKKHHDQQRVQYKSWHIDVHGERATATAEVRVDHNGQPDTFRLVISAQAHNGRVKRAEYRKDT”, -0.145; under “DEDVQDQYRKILEAEKKNNPDHLNELMDPNVKFNVGDHTIHGREQRKEKQDELVKESRYDIKVDRVSVKGNKFVAKFKVTEEHNGRPHTTVLVIVMTVENGHVKRLQVKRDK”, -0.001.
The result for “DEDVQKIAETFWRVLKQGNEDDARRLIDPNARINVGNKNYHGREQIAEIIKKKKEEIRFSIDDVKVRVHNGELTASIDFKVNVNGRPDSIHVEFRMVVHNGKIVQIQMQVDEDWMKELES” reads 0.788; that for “DEDVVDEFRRAIESNDFDRLVELADENAKADIGNKTVRGRDEMKDLMTSQKRRVDHLQVTSFSIDGDKLTVRYIANIDGHKIDNVVRFVAHNGKLKHMEVRARSEEQQKTLEKLIG”, 0.059; that for “DEDVVKEWMTDQRNNNEKRLQSLVDPNAKLEYGDKSIHGDEEMHEWAKKLRESVDHWEVKEYDIHNGTAEADVVVQFNGREIRYQFVAVAHNGSVTSIVYRARDEDFERFLDDIFS”, 0.165.
“DEEAAKHVNRMLEKGDEKKIAQHVDKDARAHVGNQELHGREDIIRAVTRFRQQADHMRVDSYEVQGDRIEVTFEVVVNGHKMQLKATIRVDNGRIKHNKIQARSEEQTKQMQKLLD” gave a protease stability score of -0.171.
The result for “DEEAAKKMMETWMKAVQKGDEKTVQKVYKPNGRWVHIDEERQGVEVVVKMMQQVKKQGVEFQIRRAKVEGDRVQFVYDLRLGDKTATFTVELQAQGGRVQEVKAEVSEEAKEIVTKG” reads 0.14.
Under “DEEAAKKVKTLVEHGDFQQMARNFDEDARVVIGDRVVHGREQAIEAMRRFDEAVDHQEVKSVTSSGNKVKFNIQAHVDGKTVRMIVVIEMHNGKLKMVRFDATSEDLRRILKRSLG” stands 1.27.
In turn, “DEEAAKLMRKMQQAVRSNNPEEVQRMMDPNASAKYGDKEVHGREEIATHLVKETRRMHIHYDVEHITVDNGRADVTADVQQEHNGKPERRKYKVHIEVRGDKLVHLRFETRK” showed a protease stability score of 0.06.
The result for “DEEAAKRAEEYLKALRSGNPDDLKKQIDPNASYQIGDKRVHGREQQATLAHNLQHNMRMEWELKDYRVQGNSVTLEIDVVIEHNGRPEKFKADVRVTFHNGKIQEMTVREDK” reads 0.051; that for “DEEAAKRLENILKAEERNDEDSLRRLMDKDAHINVGDRQVHGMDRRRENVQHQSRRSDIQLESINKHENGDTVHVDVVRRYQHNGRPSRERFDAVAQVHNGKMRSMTAQDSQ”, -0.44.
Under “DEEAARKFEHALRVREHGNEHQLQELVDPNARVSIGDKRVKGHERIQHWQETLHHEMRFRMQVDSYEVQGEKVRFNVRVQYDINGQPVDDRMTLVVQFDNGRIKSVEYQIPTEMKRDLKR” stands 0.032; under “DEEADKRITEQLKQEQEGDKDKVKEQIDPNARIKVGDKTIHGMDEYVRMVHRTRREQRRRIRVVSVEVRGNTAKVDADRHIDVNGRPVRYRIEFHVEFHNGKVTDIHVHTDQEQKKKQHG”, 0.655; under “DEEAEDLVKELWKAWKHNDPDTWVKQLPPDARISVGNKEVHGREQARHEFERQVERMQVRLKVDSVHNRGNKAHFHVTVDASVNGKPVTFTVEVVITFHNGKAKYIEMRMSEEQFDKFQG”, 1.41.
The result for “DEEAEHVARELQKAQETGNPKRARHMMDENARIQVGDHRIHGMSRYLEDLRRKQEEIRIEFKRVSHNVNGNRVVINFLAVYEVNGHPVHLRIQLSFEIHNGRAQTMDVNISEQQMRDIER” reads -0.022.
For the sequence “DEEAEKELRKMFQNENKGNPNEVMKQFDKHARVKVGEKEIRGRHQVHNYVDHVRKEMRRQIDSMSLEVHGNKLIVHITYVADINGHPVRVQVQYIIQFHNGKIKEVKVKIDEDEKRRMDQ”, the protease stability score is 0.385.
The result for “DEEAEKLAREFIKAVQTGDEEELNELMDPNARFRIGNKTFHGMTNAAKEFNDKRREAHIEYHITSIRVSGDHVEVKVEVHVNVNGKPVHNEVTMDFKRHNGRIRDFQVQIDEEDQKKQDK” reads 1.29; that for “DEEAEKRFEELMENRKTGNEHDVSEYADPNVTARIGDHEVRGREQLHDLQRKEKEEMRVDIKDYRLDFNGDTVRVEVHLEDEHNGRPRDRHQSNSFRWQNGKLKELHIRSDK”, -0.353; that for “DEEAEKVYRKMLHALRTGNEHQLKKLMDPNVHVKVGDKHIHGREDVAQEQRTDRQRWRNDQQLVTFHAEGDQVEFTVEYVIEVNGQPDKDRYKAFFRFDNGKIKEFQVDIDPKELKEQLN”, 0.096.
Consider “DEEAERIAEEFIRAQQTGDKDRLRKLMDPNARANVGDKRYHGMERWAKDVARTMHEQRVEIKDLKISVQGNKADVHIDLVVDHNGQPRRFDMRLDFRFNNGTIKEVSYDDKR”, for which the protease stability score was found to be 0.391.
